To fix the notation:
B1: mNeonGreen-tagged T-bet DNA binding domain (aa 135-326), wild type [mouse] / mTagBFP-tagged GATA3 DNA binding domain (aa 259-369) [not stated] (parent complex)
chain 1: KLRVALSNHLLWSKFNQHQTEMIITKQGRRMFPFLSFTVAGLEPTSHYRMFVDVVLVDQHHWRYQSGKWVQCGKAEGSMPGNRLYVHPDSPNTGAHWMRQEVSFGKLKLTNNKGASNNVTQMIVLQSLHKYQPRLHIVEVNDGEPEAACSASNTHVFTFQETQFIAVTAYQNAEITQLKIDNNPFAKGFREN
chain 2: not shown

In this experiment the parent is B1. As to the kind of experiment: flow-cytometric FRET; HEK293T cells; parent: 0.036; read off a plot.
For chain 1 V124W, the response was about 0.025 DFRET.

For chain 1 I123E, the response is about -0.001 DFRET. Take chain 1 K113L: the response was about 0.041 DFRET. For chain 1 Q126A the value was about 0.031 DFRET; for chain 1 R190W, about -0.001 DFRET.

Consider chain 1 R29A, chain 1 R30A, for which the response is about -0.004 DFRET. Next, chain 1 E76A: about 0.043 DFRET; chain 1 K26A: about 0.018 DFRET.
